According to the supplement of paper PMC7877785:
± gives the uncertainty stated by the source.

Test: self-splicing fitness, log relative to wild type (ln ratio); higher = more splicing; Tetrahymena group I intron in knt gene, E. coli kanamycin selection, DiMSum; sequences stand for … in CUCUCU…GGAGGGAAAAGUUAUCAGGCAUGCACCUGGUAGCUAGUCUUUAAACCAAUAGAUUGCAUCGGUUUAAAAGGCAAGACCGUCAAAUUGCGGGAAAGGGGUCAACAGCCGUUCAGUACCAAGUCUCAGGGGAAACUUUGAGAUGGCCUUGCAAAGGGUAUGGUAAUAAGCUGACGGACAUGGUCCUAACCACGCAGCCAAGUCCUAAGUCAACAGAUCUUCUGUUGAUAUGGAUGCAGUUCACAGACUAAAUGUCGGUCGGGGAAGAUGUAUUCUUCUCAUAAGAUAUAGUCGGACCUCUCCUUAAUGGGAGCUAGCGGAUGAAGUGAUGCAACACUGGAGCCGCUGGGAACUAAUUUGUAUGCGAAAGUAUAUUGAUUAGUUUUGGAGUACUCGUGGUCG
Method in brief: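 Colonies from six replicate transformations of E. coli BL21(DE3) were pooled and amplicon-sequenced on an Illumina HiSeq 2500. The library placed an intron with all eight P1ex-region nucleotides randomised inside the knt kanamycin-resistance gene on pET-22b(+), and cells grew overnight at 37°C or 30°C on LB agar with or without 25 μg/mL kanamycin (plus 100 μg/mL carbenicillin, 50 μM IPTG, 0.2% rhamnose). Fitness is the DiMSum error-weighted combination of wild-type-normalised replicate fold changes, kanamycin versus none.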

Sequence	self-splicing fitness (ln) (30 °C)	self-splicing fitness (ln) (37 °C)
CCUAAGCAAUAUUACGGAUU	-4.68 ± 0.28	-2.46 ± 0.23
CGGUAGCAAUAUUACGCUGA	-2.23 ± 0.21	-0.951 ± 0.2
AACCAGCAAUAUUACGAACG	-1.27 ± 0.08	-1.25 ± 0.089
GACUAGCAAUAUUACGGACG	-1.4 ± 0.21	-1.85 ± 0.13
CUCCAGCAAUAUUACGUUGU	-4.22 ± 0.15	-3.49 ± 0.21
CUGUAGCAAUAUUACGUUCA	-3.47 ± 0.24	-1.45 ± 0.15
AUAAAGCAAUAUUACGUCGA	-0.992 ± 0.068	0.858 ± 0.086
CUUUAGCAAUAUUACGGACG	-0.38 ± 0.07	-0.273 ± 0.11
AUUUAGCAAUAUUACGCAAA	-1.86 ± 0.15	-1.82 ± 0.17
CGUCAGCAAUAUUACGCGAA	-2.93 ± 0.21	-2.51 ± 0.19
CACCAGCAAUAUUACGUUAU	-3.86 ± 0.12	-3.32 ± 0.15
GGAGAGCAAUAUUACGGUGA	-2.27 ± 0.2	-1.46 ± 0.21
UAAGAGCAAUAUUACGAGUA	-2.94 ± 0.19	-2.66 ± 0.21
UAUGAGCAAUAUUACGAAUG	-2.49 ± 0.17	-1.28 ± 0.18
AUGGAGCAAUAUUACGCAUU	-3.12 ± 0.22	-1.84 ± 0.22
GAUUAGCAAUAUUACGAGAA	–	-1.51 ± 0.3
CAAUAGCAAUAUUACGGAGC	-2.48 ± 0.22	-2.53 ± 0.45
CCCCAGCAAUAUUACGGCGG	-3.53 ± 0.17	-2.99 ± 0.24
UCGCAGCAAUAUUACGAAAA	-3.16 ± 0.43	-2.2 ± 0.46
ACUGAGCAAUAUUACGUAAU	-3.47 ± 0.23	-2.23 ± 0.22
AACAAGCAAUAUUACGCGAC	-2.41 ± 0.21	-1.47 ± 0.21
ACAGAGCAAUAUUACGGGAA	-2.54 ± 0.19	-2.98 ± 0.34
CGAAAGCAAUAUUACGCGAA	-1.82 ± 0.24	-2.02 ± 0.3
AGCAAGCAAUAUUACGAGAC	-4.19 ± 0.36	-2.81 ± 0.21

Sequence	self-splicing fitness (ln) (30 °C)	self-splicing fitness (ln) (37 °C)
CAGUAGCAAUAUUACGUCCC	–	-1.76 ± 0.4
CCGGAGCAAUAUUACGGCGG	-1.49 ± 0.15	-2.15 ± 0.34
CCCAAGCAAUAUUACGCGCA	-4.14 ± 0.35	-2.72 ± 0.21
UCUGAGCAAUAUUACGACCG	-2.92 ± 0.4	-2.39 ± 0.46
GUCUAGCAAUAUUACGUAGG	-0.837 ± 0.14	-0.942 ± 0.21
GCGCAGCAAUAUUACGUCAU	-1.65 ± 0.084	-0.91 ± 0.086
GGCGAGCAAUAUUACGCAUA	-1.15 ± 0.17	-0.988 ± 0.16
AGAAAGCAAUAUUACGCUGC	-2.38 ± 0.2	-1.52 ± 0.23
ACACAGCAAUAUUACGCCCU	-0.215 ± 0.072	-0.0145 ± 0.077
AGAAAGCAAUAUUACGAUUU	-0.00992 ± 0.078	0.286 ± 0.11
UUCAAGCAAUAUUACGUGUU	-3.23 ± 0.13	-1.72 ± 0.11
CGAUAGCAAUAUUACGGUCG	-4.36 ± 0.29	-3.39 ± 0.35
UCGAAGCAAUAUUACGCGUU	-3.93 ± 0.21	-1.47 ± 0.18
UAUGAGCAAUAUUACGUUGC	-2.19 ± 0.19	-2.65 ± 0.23
CUCGAGCAAUAUUACGCAGA	-2.04 ± 0.35	-0.967 ± 0.17
ACGGAGCAAUAUUACGCACG	-3.77 ± 0.35	-2.71 ± 0.37
AUCGAGCAAUAUUACGAGCU	-2.36 ± 0.4	–
CCACAGCAAUAUUACGAUCA	-2.69 ± 0.33	-1.98 ± 0.28
CACCAGCAAUAUUACGAUAA	-4.88 ± 0.31	-2.14 ± 0.19
CCGUAGCAAUAUUACGGCAG	-3.35 ± 0.26	-2.28 ± 0.26
GGGUAGCAAUAUUACGGCCU	-3.57 ± 0.38	-2.14 ± 0.46
CCCAAGCAAUAUUACGGGUA	-4.37 ± 0.28	-2.81 ± 0.16
UAUGAGCAAUAUUACGAUUU	-3.29 ± 0.26	-1.76 ± 0.22
UGUCAGCAAUAUUACGAAUA	-0.932 ± 0.14	-1.03 ± 0.11
